As usually defined, the stoichiometry N is a count of units in the complex or per binding partner.

The text below walks through data of article PMC3446985.

This assay has as its target human GRP78 (human) (UniProt P11021). As to the kind of experiment: AUC; sedimentation velocity, GRP78 alone at 0.4, 0.6 and 1.2 mg/mL, 28,000 rpm, 20°C, 20 mM sodium phosphate pH 7.0, 100 mM NaCl, 55 mM arginine, c(S) analysis; monomer to dimer.

human GRP78, P11021 19-654 (natural protein; other documents disagree on this pair), sequence (P11021 19-654): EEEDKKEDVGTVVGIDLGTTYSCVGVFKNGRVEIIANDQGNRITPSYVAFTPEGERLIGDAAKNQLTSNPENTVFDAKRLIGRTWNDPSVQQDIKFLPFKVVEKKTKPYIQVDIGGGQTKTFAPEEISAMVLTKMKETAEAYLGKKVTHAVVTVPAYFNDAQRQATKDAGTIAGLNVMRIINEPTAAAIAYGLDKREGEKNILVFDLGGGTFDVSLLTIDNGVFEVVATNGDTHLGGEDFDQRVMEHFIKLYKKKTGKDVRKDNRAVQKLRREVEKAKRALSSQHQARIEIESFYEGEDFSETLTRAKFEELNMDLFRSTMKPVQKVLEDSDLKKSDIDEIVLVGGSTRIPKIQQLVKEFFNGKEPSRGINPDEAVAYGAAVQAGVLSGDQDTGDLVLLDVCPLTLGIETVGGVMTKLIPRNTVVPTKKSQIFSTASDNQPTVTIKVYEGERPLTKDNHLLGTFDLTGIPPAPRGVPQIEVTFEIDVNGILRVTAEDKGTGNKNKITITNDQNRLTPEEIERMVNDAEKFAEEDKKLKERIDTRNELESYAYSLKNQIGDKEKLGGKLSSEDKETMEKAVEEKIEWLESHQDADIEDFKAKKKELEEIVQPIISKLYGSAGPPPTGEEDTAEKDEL

“human GRP78, P11021 19-654 (natural protein; other documents disagree on this pair)” registered a stoichiometry N of 2.
